B1: Retinoic acid receptor alpha (RARα) (natural protein, mouse (endogenous in testis), UniProt P11416 1-462, looked up)
chain: MASNSSSCPTPGGGHLNGYPVPPYAFFFPPMLGGLSPPGALTSLQHQLPVSGYSTPSPATIETQSSSSEEIVPSPPSPPPLPRIYKPCFVCQDKSSGYHYGVSACEGCKGFFRRSIQKNMVYTCHRDKNCIINKVTRNRCQYCRLQKCFDVGMSKESVRNDRNKKKKEAPKPECSESYTLTPEVGELIEKVRKAHQETFPALCQLGKYTTNNSSEQRVSLDIDLWDKFSELSTKCIIKTVEFAKQLPGFTTLTIADQITLLKAACLDILILRICTRYTPEQDTMTFSDGLTLNRTQMHNAGFGPLTDLVFAFANQLLPLEMDDAETGLLSAICLICGDRQDLEQPDKVDMLQEPLLEALKVYVRKRRPSRPHMFPKMLMKITDLRSISAKGAERVITLKMEIPGSMPPLIQEMLENSEGLDTLSGQSGGGTRDGGGLAPPPGSCSPSLSPSSHRSSPATQSP
notes: Retinoic acid receptor alpha, mouse, endogenous in testis; band of 52 kDa; Endogenous protein of C57BL/6 mouse testis; source: endogenous, mouse P7 testis protein extract
B2: PRAMEX1 (Prame like, X-linked 1) (natural protein, mouse (endogenous in testis), UniProt F7ADI6 1-462, looked up)
chain: MDERDPSSLLDLAIQSLLSNELVAIHSLGEIPRELFVPLFSAAFTGGYRKILTSMVKIWPFTCLHIGTLSVQEPQRELLKAMVESLQFLPAQDCSSGGPKLRILDVRQGVDCKTTCPDFGARSPTCFHGCTHSVHSILKLESQYSIVDLKPESQSAIQPMELLVDLSLDGTLREREFFALLLNKVQQSSGSLHLCCRDLQIDRFSYAKNALKFLDLTCIQNLTVDQASLSEVTTLLARMIYLDSLSLSKITYRSLHGKVFRVFLNYLGRMNCLKELNLSSFSLTDHLDSLLRALPPNLDFLYLPFCEISYRDLKFLSQSAQATHLKLLNLSNNPMYWDDCGPFQTLLQKLSDTLQHLAINHCHLTDAILSAILPALSKCSHLRVISFVSNPISMPMLLKILHYLTPLMELKYVIYPIPIHCYEQWQFHGRLDRQKLTDVQAQLKAMLQAAKRSDMNWITYSQ
notes: PRAMEX1 (Prame like, X-linked 1), mouse, endogenous in testis; band of about 56 kDa; Endogenous protein of C57BL/6 mouse testis; no recombinant construct; source: endogenous, mouse P7 testis protein extract

Key:
[1] = target: B2; test: co-IP; anti-PRAMEX1 or anti-RARα antibody immobilised on protein A/G magnetic beads (Pierce Crosslink Magnetic IP/co-IP Kit); P7 testis proteins of WT, Pramex1 sKO and Pramel1 sKO mice, overnight at 4 °C; Western blot, band intensity relative to input (set as 1), n = 3; settings: partners not purified
[2] = target: B1; test: as above; settings: partners not purified

band intensity in the PRAMEX1 precipitation relative to input, Pramel1 sKO testis [1] [fold] | band intensity in the PRAMEX1 precipitation relative to input, WT testis [1] [fold] | band intensity in the RARα co-IP relative to input, Pramel1 sKO testis [2] [fold] | band intensity in the RARα co-IP relative to input, WT testis [2] [fold] | Binder
2.48 | 1.5 | – | – | B1
– | – | 3.32 | 1.3 | B2

From paper PMC10893636, “Synergistic enhancement of the mouse Pramex1 and Pramel1 in repressing retinoic acid (RA) signaling during gametogenesis” (Cell & Bioscience, 2024)
